Data taken from US20260250352A1.
Where two headings read alike, the source gives them in different places.

How the values were obtained:
Assay in all cases: cell-based or functional assay
[1] = molecular target: APRIL + BAFF in combination (human)
[2] = molecular target: single chain BAFF-APRIL-APRIL heterotrimer (BAA) (human) (UniProt Q9Y275)
[3] = molecular target: recombinant human APRIL (human) (UniProt O75888)
[4] = molecular target: APRIL + BAFF in combination (human); remark: listed apart in the source

Chain of single chain BAFF-APRIL-APRIL heterotrimer (BAA) (human) (Q9Y275 other isoform, or with tags, fused parts or gaps limits assumed): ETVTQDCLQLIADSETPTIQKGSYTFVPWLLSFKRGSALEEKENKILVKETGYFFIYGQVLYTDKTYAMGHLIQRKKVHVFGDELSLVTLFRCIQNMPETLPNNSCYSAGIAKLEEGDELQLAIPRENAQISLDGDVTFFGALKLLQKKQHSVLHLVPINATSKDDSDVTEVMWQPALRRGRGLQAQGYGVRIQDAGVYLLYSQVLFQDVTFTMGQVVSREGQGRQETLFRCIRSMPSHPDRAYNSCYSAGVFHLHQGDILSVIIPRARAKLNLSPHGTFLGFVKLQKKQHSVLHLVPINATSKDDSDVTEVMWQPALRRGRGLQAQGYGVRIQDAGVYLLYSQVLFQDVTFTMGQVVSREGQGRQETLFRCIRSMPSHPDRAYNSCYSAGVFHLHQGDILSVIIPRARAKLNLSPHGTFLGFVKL

B1: Telitacicept, O14836 13-118 (Fc fusion, not shown: a dimerising Fc or GST)
chain: SRVDQEERFPQGLWTGVAMRSCPEEQYWDPLLGTCMSCKTICNHQSQRTCAAFCRSLSCRKEQGKFYDHLLRDCISCASICGQHPKQCAYFCENKLRSPVNLPPEL
modifications: here or on the partner: The drug is a disulfide-linked Fc-fusion homodimer. Only one TACI ECD arm is given, and the Fc is left out.
IC50, Jurkat/NF-kB/TACI reporter [1]: 16.8 nM
IC50, TACI/Jurkat/NF-kB reporter [1]: > 200 nM

B2: Anti-APRIL mAb based on the published VIS649 (sibeprenlimab) sequence (antibody, INN chains, looked up, V domains shown)
VH: QVQLVQSGAEVKKPGASVKVSCKASGYTFTDYTIHWVRQATGQGLEWMGWIYPLRGSINYAQKFQGRVTMTADKSISTVYMELSSLRSEDTAVYFCARHGAYYSNAFDYWGQGTLVTVSS
VL: EIVMTQSPATLSVSPGERATLSCRASESVDNDGIRFLHWYQQKPGQAPRLLIYRASTRATGIPARFSGSGSRTEFTLTISSLQSEDFAVYYCQQSNKDPYTFGGGTKVEIK
IC50, TACI/Jurkat/NF-kB reporter [2]: 0.144 nM
IC50, TACI/Jurkat/NF-kB reporter [3]: 5.1 nM

B3: Anti-APRIL mAb based on the published BION-1301 sequence (antibody, INN chains, looked up, V domains shown)
VH: B2 VH
VL: B2 VL
IC50, Jurkat/NF-kB/TACI reporter [3]: 4.9 nM
IC50, TACI/Jurkat/NF-kB reporter [3]: 21.9 nM
IC50, Jurkat/NF-kB/TACI reporter [4]: > 100 nM
IC50, TACI/Jurkat/NF-kB reporter [4]: > 200 nM

B4: Belimumab (antibody, INN chains, looked up, V domains shown)
VH: QVQLQQSGAEVKKPGSSVRVSCKASGGTFNNNAINWVRQAPGQGLEWMGGIIPMFGTAKYSQNFQGRVAITADESTGTASMELSSLRSEDTAVYYCARSRDLLLFPHHALSPWGRGTMVTVSS
VL: SSELTQDPAVSVALGQTVRVTCQGDSLRSYYASWYQQKPGQAPVLVIYGKNNRPSGIPDRFSGSSSGNTASLTITGAQAEDEADYYCSSRDSSGNHWVFGGGTELTVLG
IC50, Jurkat/NF-kB/TACI reporter [3]: 215000 nM
IC50 relative to TACI 30-110-Fc [3]: 55.8
IC50, Jurkat/NF-kB/TACI reporter [4]: > 100 nM

B5: 26 TACI CRD2-Fc (Fc fusion)
chain: SLSCRKEQGEYYDHLLRDCISCASICGQHPKQCADFCENKLRSGSGGGGSEPKSSDKTHTCPPCPAPEAEGAPSVFLFPPKPKDTLMISRTPEVTCVVVDVSHEDPEVKFNWYVDGVEVHNAKTKPREEQYNSTYRVVSVLTVLHQDWLNGKEYKCKVSNKALPAPIEKTISKAKGQPREPQVYTLPPSRDELTKNQVSLTCLVKGFYPSDIAVEWESNGQPENNYKTTPPVLDSDGSFFLYSKLTVDKSRWQQGNVFSCSVMHEALHNHYTQKSLSLSPG
IC50, Jurkat/NF-kB/TACI reporter [1]: 1.39 nM
IC50, TACI/Jurkat/NF-kB reporter [1]: 3.1 nM
fold better IC50 than anti-APRIL mAb plus belimumab [1]: 3.5 fold
fold lower IC50 than telitacicept [1]: > 50 fold
